Tested on: NCCCNCCCCNCCCN
Experiment: colorimetric DTNB SSAT assay
Type: biochemical, Homo sapiens
Details: 0.25 mM AcCoA, pH 7.5, 37 °C

Q: With SAT1 (Homo sapiens) as the substance, how does the Km read?
A: 73.10 ± 8.328 µM

— paper doi:10.1101/2024.10.18.618978v3
